experiment: soluble on expression in E. coli; label from the status in PepcDB or PDB records

Soluble on expression in E. coli, soluble:
MLARVCERTPISTPAWTDTLTRLAPDASSVLARGPWTWKYALPPAVVGVAALAASSPWGVVGVALAAFVVWFHRDPDRSPNGAGVVVPADGTVSVIRTRDDGRVRVGVFMNVHNVHVNRVPVAGRVESVVHEPGGHRPAFSKESAHNERVRIETAEWTVVLIAGAFARRIHPYVEAGEDLARGDRLGHISFGSRADVVLPPAYDRGDVVVESGQTVRAGETVLARLEHHHHHH
MAHHHHHHMEGVSNILSIAGSDSCGGAGIQADIKTAMGLGCHCCTALVVLTAQNTKEVKRIVEIEEAFIVDQLDSIFADVTIDVVKLGVLYSKKIISLVSQYIVQMNKKRGKKLLVVFDPVFVSSSGCLLVENLEYIKFALDLICPISCIITPNFYECKVILQALDCQMDLSKANMTELCKLVTRMLDINACLLKSCNVGENSAEENEVYAVDHLCIRKVGSIPEGEVIQRDAGELGQSAPGGVTYLYDVYKLRSKRKPGVDVHGTGCTLSTAIACYLAKKHNILQSCIESKKYIYNCIRYAYPFGSKSQGLNHLKASQELPTFTDLEVIPIVQDSP
SGRTWREADINYTSGFRNSDRILYSSDWLIYKTTDHYQTFTKIRCAQVINTFDGVADYLQTYHKLPDNYITKSEAQALGWVASKGNLADVAPGKSIGGDIFSNREGKLPGK
MSLKLIATDLNGTLLHQDQGFNQPLLKETLSQLKQRGIRLVLASGNQYAHLKEVFREIWSTDLAVIAENGASIYLGDELVFDGSLTPQQVRLFLSATAQDEFLQNAYLILVGAQGSYTRVGAPAPLIAAAEKFYDHLQQVMSLETVTDRIKKISVSTAPEQAAALVQHLNQRFTGQLRAHDSGYGVIDVVSLHVGKLPAVQWLAQHWQIPATEIVAFGDGANDVPLLNYAGQSYAMKNAPVDIQAQAKHVTVWDNDRDGVLRTIATLLVADEGHHHHHH
MRMIFVNLPVKNIEVSKSFFTALGFSFNPEYSDDRTLCMIVEENIFVMLLQEDRFRDFINGDIADAKQSTEVLTCLSAGSREEIDEMIATALASGGSSWKPVQDHGFMYAGSFQDPDGHVWELVHMTGQG
MKVTLPEFERAGVMVVGDVMLDRYWYGPTSRISPEAPVPVVKVNTIEERPGGAANVAMNIASLGANARLVGLTGIDDAARALSKSLADVNVKCDFVSVPTHPTITKLRVLSRNQQLIRLDFEEGFEGVDPQPLHERINQALSSIGALVLSDYAKGALASVQQMIQLARKAGVPVLIDPKGTDFERYRGATLLTPNLSEFEAVVGKCKTEEEIVERGMKLIADYELSALLVTRSEQGMSLLQPGKAPLHMPTQAQEVYDVTGAGDTVIGVLAATLAAGNSLEEACFFANAAAGVVVGKLGTSTVSPIELENAVRGRADTGFGVMTEEELKLAVAAARKRGEKVVMTNGVFDILHAGHVSYLANARKLGDRLIVAVNSDASTKRLKGDSRPVNPLEQRMIVLGALEAVDWVVSFEEDTPQRLIAGILPDLLVKGGDYKPEEIAGSKEVWANGGEVLVLNFEDGCSTTNIIKKIQQDKKG

Soluble on expression in E. coli, not soluble:
MSLNRLSIPYSNKSLDYYFFVIQEASVKRAVLARSGEFQATNANFDNTRQLEQWQSLLLSRPSAIISDPIDSQAIVSAIRRYNREKIPVGIIDTPADGGDVAITVSFDNFQGGVMAAEEIVNRLITRYGRPKGTVLNCYGALASVAWRLRKEGMDSVFAKYPGITYLARPTDGQLEKMLSVTLSTLSEYPDLDAVHAPSDSPSRGIVTALQQKGRWKKIGEAGHVIFVNIDGEPIALKWIQDGYMDACISQDPVAYGEIAVDMIVKHALKGEAVPLGTYQDKKYFWESGEGHHHHHH
MGSDKIHHHHHHMKILVYGINYSPELTGIGKYTGEMVEWLAAQGHEVRVITAPPYYPQWQVGENYSAWRYKREEGAATVWRCPLYVPKQPSTLKRLLHLGSFAVSSFFPLMAQRRWKPDRIIGVVPTLFCAPGMRLLAKLSGARTVLHIQDYEVDAMLGLGLAGKGKGGKVAQLATAFERSGLHNVDNVSTISRSMMNKAIEKGVAAENVIFFPNWSEIARFQHVADADVDALRNQLDLPDNKKIILYSGNIGEKQGLENVIEAADRLRDEPLIFAIVGQGGGKARLEKMAQQRGLRNMQFFPLQSYDALPALLKMGDCHLVVQKRGAADAVLPSKLTNILAVGGNAVITAEAYTELGQLCETFPGIAVCVEPESVEALVAGIRQALLLPKHNTVAREYAERTLDKENVLRQFINDIRG
MSSIDPATFAAQFAQIEIQPFKQRYQLQTNTYQSQLSALGKVESAMREFRTALNEMNSSTNSIIKNSTSISQEGYFTANADAKALSGSYQIFVEQVATSHQ
MKARKAKEFVFNDLLSMESYCINHYSDYYSKSNFSCNVTQLSKGELVTSSICAPINDAHLEIFKSNQTILYEEEANQNSVAFCWINSNGEQAQTNTIISGHKMMDLSIAGFNRLNKTGGNVWDIVGANTQLCCMSLKWEKVKEKINQMNAYNAFAKLEECIGIDSNSSASIQLKSLFERHFTKGLRESEAFYDLAIATLEEPCDLEILTERSDKTELIEDLVKLLYEDREGMPPLTISEITKYLNTEKESLSIACRTNFDMPILDLIKSIRLEQVKKSYLNPHVPKGLKNFTKKQNALYYGFKNWTTFQKFYHQSFQESPDETINKSSKASVLVTDLFTRRS
MCMSATLSRPGCGACCIAPSISSPIPGMPQGKPAGSRCVQLDDDMRCRIFGHPDRPDVCSSLQPSTELCADDREQAMTWLLKLEELTLPARLEHHHHHH
MKRANAVKLIVGKETHEKLKELAIVAAKCWNEVNWLRMQQFKEGERVDFSKTEKEVYEKYKQILKVNTQQVARKNAESWRSFFSLIEEKKGKLPKWFKPRPPGYWKDKSGKYKMLIIIRNDRYEIDEEKRIIYLKDFKLSLSFNGKLKWRGKQGRLEIIYNEARRSWYAYIPVEVQNDVKAEDKLKASIDLGIINLATVYVEDGSWYIFKGGSVLSQYEYYSKRISVAQKTLARHKQGRSREMKLLHEKRKRFLKHALNSMVRKIMEEFKNKGVGEIAIGYPKEISKDHGNKLTVNFWNYGYIIRRFEGVGEELGVKVVKVDEAWTSKTCSLCGEAHDDGRIKRGLYRCLRIGKVINADLNGAINILHIPESLGAGSRGQLTVRDRGNGLKTQPAVYRWTNGAGWVSSPTSYEVMKMKAVNCKPMNRHKGTFTLLEHHHHHH
MKRFLLLLCALLSFSALAAPKADLWPYWQQSNGVNQTSISHLEWQQLLDSYLVTRGDNTLFRYNQVSFADKTKLKQYIQRLASLNPLQYRQAEQYAYWVNLYNALTVHLILDNYPITSITKLGGLFSFGPWDQGVIIINGKSLTLNDIEHRILRPIWQDPRTHYAVNCASLGCPNLQTQAFTAENTQTLLESAAKTFINSKKGVSIEGDTAKISSIYEWFAVDFGGEKEVFNHIRKYAPQYNHFSGRVKYDYDWSLNQADLEHHHHHH
MGSDKIHHHHHHMSSLQISQGTFRLSDTKTLHLDSLTLNAGDSWAFVGANGSGKSALARALAGELPLLTGERQCRFTRITRLSFEQLQKLVSDEWQRNNTDMLSPGEDDTGRTTAEIIQDDVHHPARCAILAQQFGISALLDRRFKYLSTGETRKALLCQALMSEPELLILDEPFDGLDVTARQQLAQRLTALNQAGMTLALVLNRFDEIPDFVQFAGVLADCTLAETGTTAELLQRALVAQLAHSERLTDVQLPEPDEPSARHALPDGEPRIVLNDGVVSYNDRPILHHLSWRVNPGEHWQIVGPNGAGKSTLLSLITGDHPQGYSNDLTLFGRRRGSGETIWDIKKHIGYVSSSLHLDYRVSTTVRNVILSGYFDSIGIYQAVSDRQRKLAQQWLDILGIDKRTADAPFHSLSWGQQRLALIVRALVKHPTVLILDEPLQGLDPLNRQLVRRFVDVLIRQGETQLLFVSHHAEDAPACITHRLEFVPEGERYKYVSGRCNN
MGSDKIHHHHHHMAPLRIRYQTHEFGVLDIHIRTLRDNQEFEDINGEAEKLGISSATWPLFGIVWPSEQVLSHHMLDYPIEGKRILEVGCGIGLASLVLNHRLADITATDYHPETGSFLSQNVALNKGRTIPFVRTGWADETSKLGLFDLIIGSDLLYEQEHADLLSQFIEQHAKPICDVILVDPGRGNHAKFSKRMVTLGYEHSQHKPIHTEFLLAPFGGQILSYSRTKS
